Results published in patent US20190367631A1 (Regeneron, published 2019).
Numbering of substitutions follows the chain as printed. In names and notes the source's numbering stands.

T1: full length human MSR1 with a C-terminal Myc tag, on HEK293.Myc.hMSR1 cells (human, UniProt P21757 1-451)
T1 sequence (looked up): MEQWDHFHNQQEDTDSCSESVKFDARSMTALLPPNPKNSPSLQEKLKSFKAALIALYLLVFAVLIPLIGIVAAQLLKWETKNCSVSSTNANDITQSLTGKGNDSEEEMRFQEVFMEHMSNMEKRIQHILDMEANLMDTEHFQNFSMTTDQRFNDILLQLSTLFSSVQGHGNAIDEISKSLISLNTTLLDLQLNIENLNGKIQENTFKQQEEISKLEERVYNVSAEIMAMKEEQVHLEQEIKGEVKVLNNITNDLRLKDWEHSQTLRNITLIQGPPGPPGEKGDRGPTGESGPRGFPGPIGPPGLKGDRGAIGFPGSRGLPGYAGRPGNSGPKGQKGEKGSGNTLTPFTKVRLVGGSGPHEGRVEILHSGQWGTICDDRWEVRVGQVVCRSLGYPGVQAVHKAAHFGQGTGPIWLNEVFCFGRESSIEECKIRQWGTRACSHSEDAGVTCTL

T2: mouse MSR1 on RAW264.7 cells (mouse, UniProt P30204 1-458)
T2 construct: whole, on cells; also called MSR1 positive RAW264.7 cells
T2 sequence (looked up): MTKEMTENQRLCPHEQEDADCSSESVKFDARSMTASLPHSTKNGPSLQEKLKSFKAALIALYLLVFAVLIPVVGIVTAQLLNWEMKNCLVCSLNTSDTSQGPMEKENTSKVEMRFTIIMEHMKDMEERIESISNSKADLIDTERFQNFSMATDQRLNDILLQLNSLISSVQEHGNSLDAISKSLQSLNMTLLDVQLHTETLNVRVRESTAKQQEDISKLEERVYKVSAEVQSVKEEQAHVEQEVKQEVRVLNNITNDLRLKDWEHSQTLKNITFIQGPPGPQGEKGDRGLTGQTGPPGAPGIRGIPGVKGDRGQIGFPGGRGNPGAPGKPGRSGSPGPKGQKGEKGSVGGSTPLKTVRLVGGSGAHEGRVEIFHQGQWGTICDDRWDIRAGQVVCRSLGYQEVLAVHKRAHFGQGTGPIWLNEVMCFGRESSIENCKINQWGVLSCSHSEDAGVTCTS

T3: full length monkey MSR1 on HEK293.mfMSR1 cells (Macaca fascicularis, UniProt A0A2K5UWE2 1-451)
T3 construct: whole, on cells
T3 sequence: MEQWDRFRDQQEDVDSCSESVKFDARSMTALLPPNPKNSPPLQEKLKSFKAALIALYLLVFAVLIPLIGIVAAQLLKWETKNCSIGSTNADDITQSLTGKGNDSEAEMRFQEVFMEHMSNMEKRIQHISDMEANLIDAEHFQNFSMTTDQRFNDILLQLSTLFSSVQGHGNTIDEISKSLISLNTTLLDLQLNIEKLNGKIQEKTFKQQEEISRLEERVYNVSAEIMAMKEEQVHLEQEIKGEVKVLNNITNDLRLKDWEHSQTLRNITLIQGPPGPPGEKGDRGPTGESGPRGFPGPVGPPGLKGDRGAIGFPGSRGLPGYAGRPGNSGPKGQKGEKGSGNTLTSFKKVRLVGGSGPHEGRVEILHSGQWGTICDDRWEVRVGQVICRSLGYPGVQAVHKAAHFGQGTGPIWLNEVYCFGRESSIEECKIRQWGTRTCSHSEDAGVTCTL

T4: human MSR1 extracellular domain expressed with a N-terminal nonahistidine tag (human, UniProt P21757 77-451)
T4 construct: extracellular domain; also called His9-hMSR1; His-hMSR1
T4 sequence: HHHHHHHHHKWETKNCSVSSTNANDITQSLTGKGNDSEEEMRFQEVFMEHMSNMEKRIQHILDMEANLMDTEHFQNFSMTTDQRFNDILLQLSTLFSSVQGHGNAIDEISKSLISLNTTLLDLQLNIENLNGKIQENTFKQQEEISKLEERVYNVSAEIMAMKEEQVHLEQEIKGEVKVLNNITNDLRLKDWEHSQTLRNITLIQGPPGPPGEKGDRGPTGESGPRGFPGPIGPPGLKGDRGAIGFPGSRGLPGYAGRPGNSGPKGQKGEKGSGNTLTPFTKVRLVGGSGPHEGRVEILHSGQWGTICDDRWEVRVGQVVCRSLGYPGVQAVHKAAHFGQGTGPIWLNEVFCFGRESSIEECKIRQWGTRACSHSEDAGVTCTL

B1: H1H27751P-N297Q (antibody, human IgG1, V domains shown)
VH: EVQLVESGGGLVQPGGSLRLSCAASGFTFSNYAMHWVRQAPGKGLEYVSAISSNGGSTYYADSVKGRITISRDNSKNTLYLQMGSLRAEDMAVYYCARGRPYYYYFGMDVWGQGTTVTVSS
VL: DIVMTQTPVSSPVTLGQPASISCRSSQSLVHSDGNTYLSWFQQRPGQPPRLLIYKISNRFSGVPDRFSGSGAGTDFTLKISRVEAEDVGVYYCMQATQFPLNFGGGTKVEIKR
notes: human IgG1 Fc with N297Q
B2: H2aM21228N (antibody, mouse IgG2a, V domains shown)
VH: VQLVESGGGLVQPGGSLRLSCAASGFTFSDHYMDWVRQAPGKGLEWVGRTRNKANSHTTEYAASVSGRFTISRDDSKNSLYLQMNSLKTEDTAVYYCTRAGIIGTLFDYWGQGTLVTVSS
VL: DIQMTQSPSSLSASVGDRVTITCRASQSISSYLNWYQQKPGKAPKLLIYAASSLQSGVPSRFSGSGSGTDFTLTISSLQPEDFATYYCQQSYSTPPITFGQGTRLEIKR
notes: mouse IgG2a Fc
B3: H1H27739P-N297Q (antibody, human IgG1, V domains shown)
VH: EVQLVESGGGLVQPGGSLRLSCTASGFTFSSYAMSWVRQAPGKGLEWVSAISGTGSSTYFTDSVKGRFAISRDNSKNTLYLQMNSLRAEDTAVYYCAKDGEWLSTVTLFDYWGQGTLVTVSS
VL: EIVMTQSPATLSVSPGERATLSCRASQSVSSNLAWYQQKPGQAPRLLIYGASTRATGIPARFSGSGSGTDFTLTISSLQSEDFALYYCQQYFIWPPHPTFGPGTKVDIKR
notes: human IgG1 Fc with N297Q
B4: H2aM25695N (antibody, mouse IgG2a, V domains shown)
VH: QVQLQESGPGLVKPSETLSLTCTVTGGSISRNYWSWIRQPPGKGLEWIGYIYYSGSINYNPSLKSRVTISVDMSKNQFSLKLNSVTAADTAVYYCARDRWNWKYGMDVWGQGTTVIVSS
VL: EIVLTQSPGTLSLSPGERATLSCRASQTVRNSYLAWYHQKPGQAPRLLIYGASSRATGIPDRFSGSGSGTDFTLTISRLEPEDFAVYYCQQYGSSYWTFGQGTKMEIKR
notes: mouse IgG2a Fc
B5: H1H21234N (antibody, human IgG1, V domains shown)
VH: B4 VH with N58D, M73T, N83S, V85M
VL: B4 VL with S32N, A85T, Q90H, S94N, Y96P
notes: original human IgG1 Fc
B6: H2aM21229N (antibody, mouse IgG2a, V domains shown)
VH: EVQLVESGGGLVKPGGSLRLSCAASGFTFSRYSMNWVRQAPGKGLEWVSSISSSSSYIYYGDTVKGRFTISRDNAKKSLYLQMNSLRAEDTAVYYCVRDRGQLVLYFDYWGQGTLVTVSS
VL: DIQMTQSPASLSTSIRDRVTITCRASLSISSFLNWFQQRPGKAPKLLIYVASNLQSGVPSRFSDSGSGTDFTLTISSLQPEDFATYYCQQNYSTPPITFGQGTRLEIK
notes: mouse IgG2a Fc
B7: H1xH29283P2 (antibody, V domains shown)
VH: QVQLVQSGTEVKKPGSSVKVSCKASGGTFSRYTFSWVRQAPGQGLEWMGGIIPIFGTTNYAQKFQGRVTITTDESTSTVYMELSSLRSEDTAVYYCTRGGRYGWFDPWGQGTLVTVSS
VL: not shown
B8: H1xH27759P2 (antibody, V domains shown)
VH: EVQLVESGGGFVQPGGSLRLSCAASGFTFSSYAMSWVRQAPGKGLEWVSAISGTGSNTYYADSVKGRFTISRDNSKNTLYLQMNSLRAEDTAVYYCAKDRVTTVTYYFDYWGQGTLVTVSS
VL: not shown
B9: H1H27761P2-N297Q (antibody, V domains shown)
VH: EVQLVESGGDLVQPGGSLRLSCSASGFTFNIYAMSWVRQAPGKGLEWVSGISGSGGSTYYADSVKGRFTISRDNSKNTLYFQMNSLRVEDTAVYYCAKKISSSSYYYYAMDVWGQGTTVTVSS
VL: not shown
notes: Human IgG1 Fc with N297Q; also called H1H27761P-N297Q
B10: H1H27760P2-N297Q (antibody, V domains shown)
VH: EVQLVESGGGLVQPGRSLRLSCAASGFTFDAYAMHWVRQAPGKGLEWVSGISWNSGSIGYADSVKGRFTISRDNAKNSLYLQMNSLREEDTALYYCAKDKILELYYYGMDVWGQGTTVTVSS
VL: not shown
notes: Human IgG1 Fc with N297Q; also called H1H27760P-N297Q
B11: H1H27756P-N297Q (antibody, V domains shown)
VH: QVQLVESGGGVVQPGRSLRLSCAASGFTFSNYDMHWVRQAPGKGLEWMAVISYDGINKYYADSVKGRFTISRDNSKNTLYLQMNSLRAEDTAVYYCAKGTYSWYFDLWGRGTLVTVSS
VL: not shown
notes: Human IgG1 Fc with N297Q
B12: H1H27762P2-N297Q (antibody, V domains shown)
VH: B7 VH with T9A, T33D, F34I, T58S, T97A
VL: not shown
notes: Human IgG1 Fc with N297Q; also called H1H27762P-N297Q
B13: H1H27759P2-N297Q (antibody, human IgG1, V domains shown)
VH: B8 VH
VL: not shown
notes: Human IgG1 Fc with N297Q; also called H1H27759P-N297Q

biological target: T1, full length human MSR1 with a …; assay: cell-based or functional assay

Row | % Inhibition of Dil-Acetylated LDL uptake | % Inhibition of Dil-Oxidized LDL uptake | IC50 of Dil-Acetylated LDL uptake inhibition | IC50 of Dil-Oxidized LDL uptake inhibition | Binder
1 | 59% | 85% | 1.6 nM | 2.9 nM | B1
2 | 10% | 79% | > 100 nM | 3.1 nM | B2
3 | – | 55% | – | > 100 nM | B3
4 | 40% | 69% | > 170 nM | > 16 nM | B4
5 | 36% | 64% | 0.71 nM | 4.3 nM | B5
6 | – | 26% | – | > 100 nM | B6

biological target: T2, mouse MSR1 on RAW264.7 cells; assay: flow cytometry, RAW264.7 cells
Experimental: To block binding to Fc receptors, RAW264.7 cells were incubated for 30 minutes at 4° C. with 500 pg/mL mouse IgG (Jackson ImmunoResearch, Cat #015-000-003) diluted in staining buffer, while B16F10.9 cells remained in staining buffer. […] The signal to noise (S/N) was determined by calculating the ratio of the anti-MSR1 antibodies or the control antibodies MFI to the unstained sample MFI (Table 11).

Row | MFI | S/N (MFI over unstained MFI) | Binder
7 | 3820 MFI | 1 | B1
8 | 3270 MFI | 1 | B3

biological target: T3, full length monkey MSR1 on …; assay: ECL cell binding, HEK293.mfMSR1 cells, 11 nM
Experimental: (§1) All cells were washed once with 1×PBS with Ca²⁺/Mg²⁺ and counted with a Cellometer™ Auto T4 cell counter (Nexcelom Bioscience). Approximately 1.0×10⁴ cells were seeded separately onto 96-well carbon electrode plates [MULTI-ARRAY high bind plate, Meso Scale Diagnostics] and incubated for 1 hour at 37° C. Non-specific binding sites were then blocked by 2% BSA (w/v) in PBS with Ca²⁺/Mg²⁺ for 1 hour at room temperature. THP-1 cells were pre-incubated for 0.5 hours at room temperature in sample dilution buffer with: 1) 1 mg/mL Fc receptor block reagents to block Fc gamma receptors on THP-1 cell surface [whole molecule human IgG (Jackson Immunoresearch, Cat #009-000-003) for wells being tested with anti-MSR1-mFc antibodies or 2) whole molecule mlgG (Jackson Immunoresearch, Cat #015-000-003) for wells being tested with anti-MSR1-hFc antibodies. Antibody binding on HEK293.Myc.hMSR1, HEK293.mfMSR1 and HEK293 cells was tested without Fc receptor block reagents. […] Plates were then washed to remove unbound antibodies an AquaMax2000 plate washer with a cell washing head (MDS Analytical Technologies). […] Plates were washed and developed with Read Buffer (Meso Scale Diagnostics, Cat # R92TD-2) according to manufacturer's recommended procedure and luminescent signals were recorded with a SECTOR Imager 600 (Meso Scale Diagnostics). Luminescence intensity, measured in relative light units (RLU), was recorded to indicate the binding intensity of each antibody at the range of concentrations.

Row | ratio of binding signal (RLU) to isotype control | Binder
9 | 49 fold | B1
10 | 60 fold | B2
11 | 24 fold | B7
12 | 20 fold | B3
13 | 45 fold | B4
14 | 31 fold | B5
15 | 27 fold | B6
16 | 21 fold | B8

biological target: T1, full length human MSR1 with a …; assay: ECL cell binding, HEK293.Myc.hMSR1 cells, 11 nM
Experimental: as §1

Row | ratio of binding signal (RLU) to isotype control | Binder
17 | 63 fold | B1
18 | 66 fold | B2
19 | 26 fold | B7
20 | 22 fold | B3
21 | 35 fold | B4
22 | 32 fold | B5
23 | 78 fold | B6
24 | 22 fold | B8

biological target: T4, human MSR1 extracellular domain …; assay: competition ELISA, plate-coated His9-hMSR1; 100 nM antibody, competitor ligand Ac-LDL
Experimental: (§2) Buffer alone was also added to wells on each coat. […] This assay was conducted in four different assay runs.
(§3) Data analysis was performed using a sigmoidal dose-response model within Prism™ software (GraphPad).

Row | % Blocking | Binder
25 | -36% | B9
26 | -43% | B10
27 | -54% | B11
28 | -58% | B12
29 | -45% | B13

biological target: T4, human MSR1 extracellular domain …; assay: competition ELISA, plate-coated His9-hMSR1; 1 µM antibody, competitor ligand 10 nM Ox-LDL
Experimental: as §2, §3

Row | % Blocking | Binder
30 | -21% | B9
31 | -47% | B10
32 | -45% | B11
33 | -65% | B12
34 | -62% | B13

biological target: T4, human MSR1 extracellular domain …; assay: competition ELISA, plate-coated His9-hMSR1; 300 nM antibody, competitor ligand biot-AGE-BSA
Experimental: as §2, §3

Row | % Blocking | Binder
35 | -4% | B9
36 | -4% | B10
37 | -8% | B11
38 | -16% | B12
39 | -19% | B13
